In patent US20210061893A1:
Each block holds one binder with its values, some of them ahead of it. Where no end group is shown, it is not given here.

Columns and labels:
[1] = target: phoenixin binding sites on rat pituitary adenoma cells, RC-4B/C (rat); assay: displacement of 50 pM 125I-Y0-Phoenixin-20 amide from RC-4B/C cells, gamma counting
[2] = target: antibodies raised to …-NH2 (SEQ. ID NO: 7); assay: RIA or EIA, competitive immunoassay with antibodies raised to SEQ ID NO: 7; standard peptide not named

IC50 [1]: 21.5 nM
EC50 [2]: 0.2 ng/mL
B1: Phoenixin-20 amide, …-NH2 (peptide)
peptide: AGIVQEDVQPPGLKVWSDPF-NH2

IC50 [1]: 17.9 nM
B2: phoenixin-14 amide, …-NH2 (peptide)
peptide: DVQPPGLKVWSDPF-NH2
